US20250352624A1, “SUPEROXIDE DISMUTASE AND USES THEREOF FOR PREVENTING OR TREATING DRY EYE SYNDROME” (GENOFOCUS, INC., priority 2021, published 2025)

Tests used:
[1] = system: experimental dry eye (EDE)-induced C57BL/6 mouse model; assay: Tear film break-up time in experimental dry eye mice; assay type: in vivo
Protocol: (§1) To induce experimental dry eye, 7- to 8-week-old C57BL/6 mice (purchased from Damool Science) were injected subcutaneously with scopolamine hydrochloride at 0.5 mg/0.2 ml three times a day under exposure to a ventilating device for 18 hours a day. The humidity was maintained at 30%, and the temperature was maintained at 25° C. The C57BL/6 mice were classified into 7 groups, depending on concentrations of the oral drug to be administered, as shown in Table 6.
(§2) After inducing experimental dry eye in the experimental mice, the drugs prepared in Example 3 were orally administered at 2 μL per dose once a day to the treatment groups (administered at 13:30 every day). In both eyes of all mice, at baseline, day 5, and day 10, tear volume and tear film break-up time were measured and corneal fluorescent staining score was examined. The mice were then sacrificed and tissue analysis was performed. Each group consisted of 6 animals.
To evaluate tear film stability, which is known to be the most important clinical factor in dry eye, tear film break-up time was measured. 1 μl of 1% fluorescent dye (fluorescein) was instilled into the lower conjunctival sac of each mouse, and then each mouse was allowed to blink about three times. Subsequently, the eyes were gently made open, and then the time (seconds) until the first defect occurred in the stained tear film was measured using a slit lamp microscope equipped with a cobalt blue filter. This was repeated three times to obtain the average value.

[2] = system: experimental dry eye (EDE)-induced C57BL/6 mouse model; assay: Corneal fluorescent staining score in experimental dry eye mice; assay type: in vivo; conditions: for corneal fluorescent staining score: total 0 to 16 points
Protocol: as §1, §2
1 μL of 1% fluorescent dye was instilled into the eyes of each mouse, followed by washing with saline. Subsequently, the cornea of each mouse was observed using a slit lamp microscope to score the degree of epithelial injury (the extent to which fluorescent staining occurred).

[3] = before drug administration, 2.5 mg/kg oral group
[4] = before drug administration, 5 mg/kg oral group
[5] = before drug administration, 10 mg/kg oral group
[6] = day 5 of administration, 2.5 mg/kg oral once a day
[7] = day 5 of administration, 5 mg/kg oral once a day
[8] = day 5 of administration, 10 mg/kg oral once a day
[9] = day 10 of administration, 2.5 mg/kg oral once a day
[10] = day 10 of administration, 5 mg/kg oral once a day
[11] = day 10 of administration, 10 mg/kg oral once a day
[12] = days 5 and 10, 0.05% CsA eye drop, SodA2 2.5, 5 and 10 mg/kg oral

B1: SodA2: variant Mn-SOD of Bacillus amyloliquefaciens GF423 sodA, Asn73 and Asn136 replaced with Asp, SEQ ID NO: 4; given orally shellac-coated, mixed with dextrin (protein, listed as Bacillus amyloliquefaciens)
chain: MAYKLPELPYAYDALEPHIDKETMTIHHTKHHNTYVTNLNKAIEGSALAEKSVDELVADLNAVPEDIRTAVRDDGGGHANHSLFWTLLSPNGGGEPTGELAEEIKSTFGSFDQFKEKFAAAAAGRFGSGWAWLVVDDGKLEITSTPNQDSPLSEGKTPVLGLDVWEHAYYLNYQNRRPDYISAFWNVVNWDEVARLYSEAK
modifications: shellac coating; dextrin mixture
tear film break-up time as compared with the 0.05% CsA group ([1]; 5 mg/kg and 10 mg/kg oral): similar
tear film break-up time [1, 3]: 1.44 ± 0.15 s
tear film break-up time [1, 4]: 1.42 ± 0.16 s
tear film break-up time [1, 5]: 1.41 ± 0.25 s
tear film break-up time [1, 6]: 1.23 ± 0.2 s
tear film break-up time [1, 7]: 1.31 ± 0.3 s
tear film break-up time [1, 8]: 1.28 ± 0.3 s
tear film break-up time [1, 9]: 1.21 ± 0.3 s
tear film break-up time [1, 10]: 1.28 ± 0.3 s
tear film break-up time [1, 11]: 1.3 ± 0.3 s
tear film break-up time as compared with the EDE and vehicle groups [1, 12]: significant increase
corneal fluorescent staining score as compared with the 0.05% CsA group ([2]; 5 mg/kg oral): more significant decrease
corneal fluorescent staining score [2, 3]: 9.2±1.7 points
corneal fluorescent staining score [2, 4]: 9.4±1.7 points
corneal fluorescent staining score [2, 5]: 9.3±1.7 points
corneal fluorescent staining score [2, 6]: 10.4±1.9 points
corneal fluorescent staining score [2, 7]: 9.9±2.5 points
corneal fluorescent staining score [2, 8]: 10.1±2.9 points
corneal fluorescent staining score [2, 9]: 8.8±2 points
corneal fluorescent staining score [2, 10]: 7.8±1.9 points
corneal fluorescent staining score [2, 11]: 8.2±1.9 points
corneal fluorescent staining score as compared with the EDE and vehicle groups [2, 12]: significant decrease
